± gives the standard error. Variants at the floor of the assay were thinned out.
B1: glmS ribozyme (parent)
chain: AUAAAAGCGCCAGAACUACAGAAAUGUAGUUGACGAGGAGGAGGUUUAUCGAAUUUUCGGCGGAUGCCUCCAAA

What was measured:
Details in all cases: with glucosamine-6-phosphate
glucosamine-6-phosphate [1] = variants of: B1; assay: self-cleavage kobs at 40 uM GlcN6P; higher = faster cleavage; RNA array
Method in brief: (§1)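 kcat and KM were obtained from weighted Michaelis–Menten fits across concentrations of kobs values. Those came from one- or two-exponential decay fits to per-tile medians normalised to baseline and to non-cleaving reference variants. The variants were barcoded ribozymes transcribed in situ by E. coli RNA polymerase on sequenced MiSeq chips and tracked through a hybridised Cy3 probe at 37 °C, with 40 μM to 10 mM glucosamine-6-phosphate in HEPES/KCl/Mg(OAc)2 buffer flowed in.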

glucosamine-6-phosphate [2] = variants of: B1; assay: self-cleavage kobs at 640 uM GlcN6P; higher = faster cleavage; RNA array
Method in brief: as §1

glucosamine-6-phosphate [3] = variants of: B1; assay: self-cleavage kobs at 160 uM GlcN6P; higher = faster cleavage; RNA array
Method in brief: as §1

glucosamine-6-phosphate [4] = variants of: B1; assay: self-cleavage kobs at 2500 uM GlcN6P; higher = faster cleavage; RNA array
Method in brief: as §1

glucosamine-6-phosphate [5] = variants of: B1; assay: self-cleavage kobs at 10000 uM GlcN6P; higher = faster cleavage; RNA array
Method in brief: as §1

Variant	self-cleavage kobs at 40 uM GlcN6P (glucosamine-6-phosphate [1])	self-cleavage kobs at 640 uM GlcN6P (glucosamine-6-phosphate [2])	self-cleavage kobs at 160 uM GlcN6P (glucosamine-6-phosphate [3])	self-cleavage kobs at 2500 uM GlcN6P (glucosamine-6-phosphate [4])	self-cleavage kobs at 10000 uM GlcN6P (glucosamine-6-phosphate [5])
C11G C68A	< 1e-05 s⁻¹	–	–	–	–
C11U G29C C34A G37U	< 1e-05 s⁻¹	< 1e-05 s⁻¹	–	–	–
C11A A48U	< 1e-05 s⁻¹	< 1e-05 s⁻¹	< 1e-05 s⁻¹	< 1e-05 s⁻¹	–
C11G G59C	5.21e-05 ± 2.3e-05 s⁻¹	–	–	–	0.000764 ± 0.00016 s⁻¹
C10U G44A	< 1e-05 s⁻¹	< 1e-05 s⁻¹	< 1e-05 s⁻¹	–	< 1e-05 s⁻¹
C11U G32C	< 1e-05 s⁻¹	< 1e-05 s⁻¹	< 1e-05 s⁻¹	–	< 1e-05 s⁻¹
C11G G40A U45G	< 1e-05 s⁻¹	< 1e-05 s⁻¹	–	< 1e-05 s⁻¹	< 1e-05 s⁻¹
C11A A14U A36U U46A	< 1e-05 s⁻¹	–	–	< 1e-05 s⁻¹	< 1e-05 s⁻¹
C10U G37A G44A U57C	< 1e-05 s⁻¹	–	–	–	–
C11U U45G C50A	< 1e-05 s⁻¹	–	–	–	–
C11G A53U	< 1e-05 s⁻¹	–	–	–	–
C10U G43C C50U C70U	< 1e-05 s⁻¹	–	–	< 1e-05 s⁻¹	< 1e-05 s⁻¹
C11G G37U A53G	< 1e-05 s⁻¹	–	–	–	–

Reference: the supplement of paper PMC7125110
